Assay results reported in patent US9701713B2, “Compositions and methods for introduction of macromolecules into cells” (The Regents of the University of Colorado, a body corporate, priority 2011, dated 2017).

Experiments:
[1] = molecular target: T1, P23H rhodopsin (Homo sapiens, UniProt P08100, P23H); experiment: Cell model of aggregation-prone P23H rhodopsin; type: cell-based; conditions: aggregation-prone mutant P23H rhodopsin
T1 construct: expressed in transfected cells
From the text: As shown, α crystallin prevents aggregation of the aggregation-prone mutant of rhodpsin, P23H rhodopsin.
This mutation is the cause of the major form of retinitis pigmentosa in humans.

[2] = tested on: lysozyme; experiment: Chaperone-like activity: suppression of chemically-induced lysozyme aggregation; type: biochemical; conditions: lysozyme with dithiothreitol at 37° C.
From the text: The “Relative Absorbance (360 nm)” of lysozyme increases over time under assay conditions. The absorbance increase is an index of protein aggregation. A reduction in the slope of absorbance increase corresponds to inhibition of lysozyme aggregation.
Recombinant human αA- and αB-crystallins were modified by addition of putative transduction sequences at their N- or C-termini. These proteins were expressed in E. coli and isolated to apparent homogeneity using previously published methods (Cobb et al. 2000). Purified proteins were analyzed by size exclusion chromatography to determine size heterogeneity. CLA was assessed by measuring the ability of candidate proteins to suppress chemically-induced aggregation of substrate protein lysozyme in the presence of dithiothreitol at 37° C.

[3] = tested on: human lens cells; experiment: Cell penetration and retention of AlexaFluor labeled crystallin in human lens cells over 3 days; type: cell-based; conditions: 60 minutes exposure
Description: αB crystallin, with or without fusion to the NTD peptide, was labeled with the small molecular weight fluorescent molecule AlexaFluor. It was then combined with tissue culture nutrient media and applied to a culture plate containing human lens cells. After 60 minutes, the culture media were removed, and replaced with culture media without crystallins. Entry and distribution of crystallins was measured over 3 days by observing fluorescence (green). Cell nuclei were stained with Hoechst dye (blue).

[4] = tested on: human lens epithelial cells (HLE B3); experiment: Uptake of Alexa Fluor 488 labeled crystallins into human lens epithelial cells; type: cell-based; conditions: Alexa Fluor 488 label, equal amounts of protein
Description: Since in vitro properties of alpha crystallin were unaffected by the addition of the NTD peptide, the ability of the NTD tag to enhance uptake of client proteins into living cells was investigated. To monitor cell uptake, wild type and NTD tagged crystallins were labeled with Alexa Fluor 488, a small reporter molecule. Equal amounts of protein were added to separate tissue culture plates containing human lens epithelial cells (HLE B3) and analyzed for their uptake into cells. At various times after addition of the protein to the cell media, cells were fixed and analyzed by fluorescent microscopy for cellular uptake of the labeled proteins. […] (See FIG. 1 and FIG. 6).
Further, αA- and αB-crystallins with and without the NTD tag were fluorescently-labeled using the fluorescent reporter molecule Alexa Fluor 488, and were incubated with human lens epithelial cells (HLE B3) and human embryonic kidney cells (HEK293). Time-dependent uptake was measured by fluorescent microscopy. At various times after addition of the protein to the cell media, cells were fixed and analyzed by fluorescent microscopy for cellular uptake of the labeled proteins.

alpha crystallin: alpha crystallin with chaperone-like activity applied to cells; b52 and b54 name it αA crystallin
fluorescence of P23H rhodopsin (prevention of aggregation) [1]: prevented the loss of fluorescence

B1: TAT-αB crystallin: αB crystallin fused to the TAT cell-penetrating peptide (GRKKRRQRRRPQ) of human immunodeficiency virus (protein)
chain: GRKKRRQRRRPQDIAIHHPWIRRPFFPFHSPSRLFDQFFGEHLLESDLFPTSTSLSPFYLRPPSFLRAPSWFDTGLSEMRLEKDRFSVNLDVKHFSPEELKVKVLGDVIEVHGKHEERQDEHGFISREFHRKYRIPADVDPLTITSSLSSDGVLTVNGPRKQVSGPERTIPITREEKPAVTAAPKK
chaperone-like activity (suppression of lysozyme aggregation, absorbance 360 nm) [2]: does not suppress lysozyme aggregation

B2: αB crystallin: recombinant human αB-crystallin (HSPB5) without transduction peptide, used as comparator (protein)
chain: MDIAIHHPWIRRPFFPFHSPSRLFDQFFGEHLLESDLFPTSTSLSPFYLRPPSFLRAPSWFDTGLSEMRLEKDRFSVNLDVKHFSPEELKVKVLGDVIEVHGKHEERQDEHGFISREFHRKYRIPADVDPLTITSSLSSDGVLTVNGPRKQVSGPERTIPITREEKPAVTAAPKK
chaperone-like activity (suppression of lysozyme aggregation, absorbance 360 nm) [2]: effectively suppress lysozyme aggregation | intracellular crystallin fluorescence ([3]; after 48 hours): substantially lost | intracellular crystallin fluorescence ([3]; after 72 hours): virtually undetectable | intracellular fluorescence (cellular uptake) [4]: comparatively little intracellular fluorescence
